The numbers were not newly measured in patent US20240084044A1, “Heteromultivalent Nucleic Acid Scaffolds and Uses Thereof” (George Mason University, priority 2022, published 2024), which cites them from elsewhere.

The target of this data set is T1, ST2 (Homo sapiens, UniProt Q01638).
T1 sequence (Q01638 19-556): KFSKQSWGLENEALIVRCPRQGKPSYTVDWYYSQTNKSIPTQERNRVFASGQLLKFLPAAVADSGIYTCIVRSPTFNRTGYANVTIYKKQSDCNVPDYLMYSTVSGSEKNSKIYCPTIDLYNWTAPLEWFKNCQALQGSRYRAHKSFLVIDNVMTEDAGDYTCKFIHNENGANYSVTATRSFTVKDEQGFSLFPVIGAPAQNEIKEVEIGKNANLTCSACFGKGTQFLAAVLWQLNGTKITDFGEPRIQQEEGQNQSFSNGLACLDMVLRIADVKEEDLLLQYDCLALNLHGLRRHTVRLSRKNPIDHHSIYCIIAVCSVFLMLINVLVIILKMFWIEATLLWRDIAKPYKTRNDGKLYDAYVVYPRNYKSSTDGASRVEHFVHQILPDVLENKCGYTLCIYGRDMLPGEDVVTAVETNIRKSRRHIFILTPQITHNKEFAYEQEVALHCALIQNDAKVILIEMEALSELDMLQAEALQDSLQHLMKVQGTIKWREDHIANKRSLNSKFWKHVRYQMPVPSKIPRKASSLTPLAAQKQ
The note with it: reported value; read-out: Kd of ST2/IL-33 binary complex; cited from earlier work.

B1: IL-33: recombinant interleukin-33 cytokine, ligand of ST2 (protein, UniProt O95760 1-270, looked up)
Interleukin-33: MKPKMKYSTNKISTAKWKNTASKALCFKLGKSQQKAKEVCPMYFMKLRSGLMIKKEACYFRRETTKRPSLKTGRKHKRHLVLAACQQQSTVECFAFGISGVQKYTRALHDSSITGISPITEYLASLSTYNDQSITFALEDESYEIYVEDLKKDEKKDKVLLSYYESQHPSNESGDGVDGKMLMVTLSPTKDFWLHANNKEHSVELHKCEKPLPDQAFFVLHNMHSNCVSFECKTDPGVFIGVKDNHLALIKVDSSENLCTENILFKLSET
As for B1, the Kd was 0.026 nM.
